Experimental data published in patent publication US12060408B2, “Screening assays, modulators and modulation of activation of Receptor for Advanced Glycation End-products (RAGE)” (Monash University, priority 2017, dated 2024).
“Also recorded” adds a separate entry of the source. Values belong to the molecule of their own block, whether it stands above or below them. Ends that are not written are not given here.

Columns and labels:
Assay type in all cases: cell-based
[1] = target: T1, adenosine A1 receptor (ADORA1) and RAGE (Homo sapiens, UniProt P30542+Q15109); assay: Ligand-induced BRET, Rluc8-tagged GPCR and RAGE/Venus; settings: mCherry-RAGE338-361 co-expressed, FIG. 21F
T1 construct: expressed in transfected cells; host or cells: HEK293FT
T1 sequence (P30542 whole entry): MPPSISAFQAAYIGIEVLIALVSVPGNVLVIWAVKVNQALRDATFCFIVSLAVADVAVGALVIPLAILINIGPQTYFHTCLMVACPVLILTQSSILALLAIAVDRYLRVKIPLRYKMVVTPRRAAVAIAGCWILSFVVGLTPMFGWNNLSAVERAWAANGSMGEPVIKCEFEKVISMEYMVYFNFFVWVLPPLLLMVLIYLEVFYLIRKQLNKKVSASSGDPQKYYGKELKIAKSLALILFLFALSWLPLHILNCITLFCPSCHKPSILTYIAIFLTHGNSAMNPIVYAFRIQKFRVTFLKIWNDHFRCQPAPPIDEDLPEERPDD
T1 sequence (Q15109 23-404): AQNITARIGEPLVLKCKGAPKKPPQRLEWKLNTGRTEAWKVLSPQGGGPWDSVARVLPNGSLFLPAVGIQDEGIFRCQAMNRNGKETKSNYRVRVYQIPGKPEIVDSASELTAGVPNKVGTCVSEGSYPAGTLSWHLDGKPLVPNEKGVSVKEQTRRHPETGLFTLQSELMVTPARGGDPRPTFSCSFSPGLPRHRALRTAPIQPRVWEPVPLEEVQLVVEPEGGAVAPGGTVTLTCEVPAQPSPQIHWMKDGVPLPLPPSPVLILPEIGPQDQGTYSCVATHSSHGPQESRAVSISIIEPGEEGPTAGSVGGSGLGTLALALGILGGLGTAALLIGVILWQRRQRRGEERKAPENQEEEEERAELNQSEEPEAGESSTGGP

[2] = target: T2, sphingosine 1-phosphate receptor 1 (S1PR1) and RAGE (Homo sapiens, UniProt P21453+Q15109); assay: as above; settings: mCherry-RAGE338-361 co-expressed, FIG. 21F
T2 construct: expressed in transfected cells; host or cells: HEK293FT
T2 sequence (P21453 whole entry): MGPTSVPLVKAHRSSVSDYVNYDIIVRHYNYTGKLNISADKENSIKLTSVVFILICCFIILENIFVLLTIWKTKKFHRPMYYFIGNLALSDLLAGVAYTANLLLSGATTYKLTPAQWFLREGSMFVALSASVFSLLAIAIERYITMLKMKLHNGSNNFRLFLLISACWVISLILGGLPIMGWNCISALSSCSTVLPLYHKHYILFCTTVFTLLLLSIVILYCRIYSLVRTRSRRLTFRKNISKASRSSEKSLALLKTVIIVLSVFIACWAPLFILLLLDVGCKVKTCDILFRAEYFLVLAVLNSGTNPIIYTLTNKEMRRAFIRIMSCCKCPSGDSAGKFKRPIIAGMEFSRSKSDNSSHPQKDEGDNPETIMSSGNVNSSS
T2 sequence (Q15109 23-404): as the sequence (Q15109 23-404) above

CCR4 and RAGE = target: T3, CCR4 and RAGE (Homo sapiens, UniProt P51679+Q15109); assay: as above; settings: mCherry-RAGE338-361 co-expressed, FIG. 21F
T3 construct: expressed in transfected cells; host or cells: HEK293FT

[3] = target: T4, bradykinin receptor 2 (B2R) and RAGE (Homo sapiens, UniProt P30411+Q15109); assay: as above; settings: mCherry-RAGE338-361 co-expressed, FIG. 21F
T4 construct: expressed in transfected cells; host or cells: HEK293FT

CXCR4 and RAGE = target: T5, CXCR4 and RAGE (Homo sapiens, UniProt P61073+Q15109); assay: as above; settings: mCherry-RAGE338-361 co-expressed, FIG. 21F
T5 construct: expressed in transfected cells; host or cells: HEK293FT

CXCR5 and RAGE = target: T6, CXCR5 and RAGE (Homo sapiens, UniProt P32302+Q15109); assay: as above; settings: mCherry-RAGE338-361 co-expressed, FIG. 21F
T6 construct: expressed in transfected cells; host or cells: HEK293FT
T6 sequence (P32302 whole entry): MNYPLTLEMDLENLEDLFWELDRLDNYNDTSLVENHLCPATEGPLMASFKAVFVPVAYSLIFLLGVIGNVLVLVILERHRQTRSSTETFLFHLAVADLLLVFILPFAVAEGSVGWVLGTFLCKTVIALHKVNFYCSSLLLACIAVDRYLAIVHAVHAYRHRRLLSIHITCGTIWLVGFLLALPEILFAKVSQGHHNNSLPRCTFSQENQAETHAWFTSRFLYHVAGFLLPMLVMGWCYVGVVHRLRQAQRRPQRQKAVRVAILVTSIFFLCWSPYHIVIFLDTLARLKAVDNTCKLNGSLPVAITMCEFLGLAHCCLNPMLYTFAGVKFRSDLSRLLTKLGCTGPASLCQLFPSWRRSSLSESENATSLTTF
T6 sequence (Q15109 23-404): as the sequence (Q15109 23-404) above

CCR9 and RAGE = target: T7, CCR9 and RAGE (Homo sapiens, UniProt P51686+Q15109); assay: as above; settings: mCherry-RAGE338-361 co-expressed, FIG. 21F
T7 construct: expressed in transfected cells; host or cells: HEK293FT

CCR2 and RAGE = target: T8, CCR2 and RAGE (Homo sapiens, UniProt P41597+Q15109); assay: as above; settings: mCherry-RAGE338-361 co-expressed, FIG. 21F
T8 construct: expressed in transfected cells; host or cells: HEK293FT

AT1 = target: T9, AT1 (Homo sapiens, UniProt P30556); assay: BRET between mCherry-RAGE338-361 and Nluc-AT1; design: expressed in transfected cells; host or cells: HEK293FT, transient; settings: FIG. 21A
T9 sequence (P30556 1-359): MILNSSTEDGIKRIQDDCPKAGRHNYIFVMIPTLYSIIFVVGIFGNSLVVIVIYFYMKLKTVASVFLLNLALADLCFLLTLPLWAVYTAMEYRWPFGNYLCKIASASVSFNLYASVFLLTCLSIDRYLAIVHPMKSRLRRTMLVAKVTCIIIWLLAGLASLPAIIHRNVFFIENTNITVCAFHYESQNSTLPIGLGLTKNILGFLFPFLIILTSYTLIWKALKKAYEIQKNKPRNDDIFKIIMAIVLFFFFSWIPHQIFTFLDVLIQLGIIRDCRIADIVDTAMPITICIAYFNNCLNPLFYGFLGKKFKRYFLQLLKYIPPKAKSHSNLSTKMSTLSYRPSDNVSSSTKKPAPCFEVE

[4] = target: T10, vasopressin receptor 2 (V2R) and RAGE (Homo sapiens, UniProt P30518+Q15109); assay: Ligand-induced BRET, Rluc8-tagged GPCR and RAGE/Venus; settings: mCherry-RAGE338-361 co-expressed, FIG. 21F
T10 construct: expressed in transfected cells; host or cells: HEK293FT

[5] = system: thyrotropin-releasing hormone receptor 1 (TRHR1) and RAGE; assay: as above; settings: mCherry-RAGE338-361 co-expressed, FIG. 21F
CCR6 and RAGE = target: T11, CCR6 and RAGE (Homo sapiens, UniProt P51684+Q15109); assay: as above; settings: mCherry-RAGE338-361 co-expressed, FIG. 21F
T11 construct: expressed in transfected cells; host or cells: HEK293FT
T11 sequence (P51684 whole entry): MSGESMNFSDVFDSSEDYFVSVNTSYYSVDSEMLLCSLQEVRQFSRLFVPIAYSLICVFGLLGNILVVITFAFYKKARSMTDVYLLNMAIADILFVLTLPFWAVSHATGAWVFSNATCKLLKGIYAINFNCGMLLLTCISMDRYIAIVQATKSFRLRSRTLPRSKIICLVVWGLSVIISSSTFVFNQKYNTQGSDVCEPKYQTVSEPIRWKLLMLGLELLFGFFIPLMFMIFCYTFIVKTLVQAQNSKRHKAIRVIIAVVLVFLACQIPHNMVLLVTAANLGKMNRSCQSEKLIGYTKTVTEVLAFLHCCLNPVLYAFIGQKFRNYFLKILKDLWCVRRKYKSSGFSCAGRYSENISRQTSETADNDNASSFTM
T11 sequence (Q15109 23-404): as the sequence (Q15109 23-404) above

[6] = target: T12, adrenergic α2B receptor and RAGE (Homo sapiens, UniProt P18089+Q15109); assay: as above; settings: mCherry-RAGE338-361 co-expressed, FIG. 21F
T12 construct: expressed in transfected cells; host or cells: HEK293FT

CCR7 and RAGE = target: T13, CCR7 and RAGE (Homo sapiens, UniProt P32248+Q15109); assay: as above; settings: mCherry-RAGE338-361 co-expressed, FIG. 21F
T13 construct: expressed in transfected cells; host or cells: HEK293FT

[7] = target: T14, neuropeptide Y1 receptor (NPY1R) and RAGE (Homo sapiens, UniProt P25929+Q15109); assay: as above; settings: mCherry-RAGE338-361 co-expressed, FIG. 21F
T14 construct: expressed in transfected cells; host or cells: HEK293FT

[8] = target: T15, vasopressin receptor 1A (V1aR) and RAGE (Homo sapiens, UniProt P37288+Q15109); assay: as above; settings: mCherry-RAGE338-361 co-expressed, FIG. 21F
T15 construct: expressed in transfected cells; host or cells: HEK293FT
T15 sequence (P37288 whole entry): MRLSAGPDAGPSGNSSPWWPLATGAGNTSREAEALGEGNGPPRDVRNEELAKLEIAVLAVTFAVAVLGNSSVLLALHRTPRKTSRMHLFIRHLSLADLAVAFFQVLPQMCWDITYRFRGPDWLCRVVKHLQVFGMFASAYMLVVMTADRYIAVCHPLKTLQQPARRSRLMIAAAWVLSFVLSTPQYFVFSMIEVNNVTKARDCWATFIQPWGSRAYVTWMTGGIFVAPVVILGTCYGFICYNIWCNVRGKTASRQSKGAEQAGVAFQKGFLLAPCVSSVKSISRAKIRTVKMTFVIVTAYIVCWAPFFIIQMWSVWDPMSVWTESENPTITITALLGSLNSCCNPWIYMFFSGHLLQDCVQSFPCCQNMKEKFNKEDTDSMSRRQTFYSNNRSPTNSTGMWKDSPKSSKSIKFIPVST
T15 sequence (Q15109 23-404): as the sequence (Q15109 23-404) above

CXCR2 and RAGE = target: T16, CXCR2 and RAGE (Homo sapiens, UniProt P25025+Q15109); assay: as above; settings: mCherry-RAGE338-361 co-expressed, FIG. 21F
T16 construct: expressed in transfected cells; host or cells: HEK293FT
T16 sequence (P25025 whole entry): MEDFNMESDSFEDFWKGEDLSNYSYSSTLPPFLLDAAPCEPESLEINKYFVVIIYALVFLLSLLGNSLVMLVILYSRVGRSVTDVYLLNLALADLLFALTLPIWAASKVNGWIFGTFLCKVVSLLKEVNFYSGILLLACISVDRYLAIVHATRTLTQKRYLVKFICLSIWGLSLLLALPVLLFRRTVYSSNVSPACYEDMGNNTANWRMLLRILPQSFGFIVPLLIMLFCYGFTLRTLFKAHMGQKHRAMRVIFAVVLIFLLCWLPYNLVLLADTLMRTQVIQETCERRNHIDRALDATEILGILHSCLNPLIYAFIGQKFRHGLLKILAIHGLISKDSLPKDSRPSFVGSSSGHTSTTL
T16 sequence (Q15109 23-404): as the sequence (Q15109 23-404) above

[9] = target: T17, orexin receptor 2 and RAGE (Homo sapiens, UniProt O43614+Q15109); assay: as above; settings: mCherry-RAGE338-361 co-expressed, FIG. 21F
T17 construct: expressed in transfected cells; host or cells: HEK293FT
T17 sequence (O43614 whole entry): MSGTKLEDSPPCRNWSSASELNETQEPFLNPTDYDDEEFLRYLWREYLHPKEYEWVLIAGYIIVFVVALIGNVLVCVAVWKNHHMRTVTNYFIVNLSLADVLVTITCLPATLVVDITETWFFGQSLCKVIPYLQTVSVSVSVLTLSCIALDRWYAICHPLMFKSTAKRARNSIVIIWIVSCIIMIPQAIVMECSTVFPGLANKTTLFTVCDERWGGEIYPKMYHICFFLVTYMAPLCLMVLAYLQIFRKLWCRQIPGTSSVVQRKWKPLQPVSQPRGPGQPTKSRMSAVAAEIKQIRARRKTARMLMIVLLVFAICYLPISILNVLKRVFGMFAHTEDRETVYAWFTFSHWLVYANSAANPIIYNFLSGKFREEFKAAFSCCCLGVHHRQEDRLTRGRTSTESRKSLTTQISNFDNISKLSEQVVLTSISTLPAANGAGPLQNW
T17 sequence (Q15109 23-404): as the sequence (Q15109 23-404) above

CCR1 and RAGE = target: T18, CCR1 and RAGE (Homo sapiens, UniProt P32246+Q15109); assay: as above; settings: mCherry-RAGE338-361 co-expressed, FIG. 21F
T18 construct: expressed in transfected cells; host or cells: HEK293FT

CCR5 and RAGE = target: T19, CCR5 and RAGE (Homo sapiens, UniProt P51681+Q15109); assay: as above; settings: mCherry-RAGE338-361 co-expressed, FIG. 21F
T19 construct: expressed in transfected cells; host or cells: HEK293FT

[10] = target: T20, vasopressin receptor 1B (V1bR) and RAGE (Homo sapiens, UniProt P47901+Q15109); assay: as above; settings: mCherry-RAGE338-361 co-expressed, FIG. 21F
T20 construct: expressed in transfected cells; host or cells: HEK293FT
T20 sequence (P47901 whole entry): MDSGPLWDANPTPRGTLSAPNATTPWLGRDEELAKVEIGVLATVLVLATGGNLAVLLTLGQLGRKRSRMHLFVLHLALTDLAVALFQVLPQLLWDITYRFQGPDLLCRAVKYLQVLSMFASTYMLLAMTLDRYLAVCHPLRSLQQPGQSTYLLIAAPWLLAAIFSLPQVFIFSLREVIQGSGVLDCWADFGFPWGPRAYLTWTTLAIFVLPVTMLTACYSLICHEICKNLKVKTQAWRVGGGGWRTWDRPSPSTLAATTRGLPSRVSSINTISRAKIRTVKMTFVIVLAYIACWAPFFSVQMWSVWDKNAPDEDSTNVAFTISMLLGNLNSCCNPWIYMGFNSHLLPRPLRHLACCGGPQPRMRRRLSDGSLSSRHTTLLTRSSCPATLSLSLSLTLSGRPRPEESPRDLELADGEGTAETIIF
T20 sequence (Q15109 23-404): as the sequence (Q15109 23-404) above

AT1R and RAGE = target: T21, AT1R and RAGE (Homo sapiens, UniProt P30556+Q15109); assay: BRET between AT1R/Rluc8 and RAGE/Venus in HEK293FT cells
T21 construct: expressed in transfected cells; host or cells: HEK293FT
T21 sequence (Q15109 23-404, one chain of several): as the sequence (Q15109 23-404) above

CCR5 = target: T22, CCR5 (Homo sapiens, UniProt P51681); assay: Receptor-HIT BRET, β-arrestin2/Venus with RAGE/Rluc8 and CCR5
T22 construct: expressed in transfected cells; host or cells: HEK293FT, transient
T22 sequence (P51681 whole entry): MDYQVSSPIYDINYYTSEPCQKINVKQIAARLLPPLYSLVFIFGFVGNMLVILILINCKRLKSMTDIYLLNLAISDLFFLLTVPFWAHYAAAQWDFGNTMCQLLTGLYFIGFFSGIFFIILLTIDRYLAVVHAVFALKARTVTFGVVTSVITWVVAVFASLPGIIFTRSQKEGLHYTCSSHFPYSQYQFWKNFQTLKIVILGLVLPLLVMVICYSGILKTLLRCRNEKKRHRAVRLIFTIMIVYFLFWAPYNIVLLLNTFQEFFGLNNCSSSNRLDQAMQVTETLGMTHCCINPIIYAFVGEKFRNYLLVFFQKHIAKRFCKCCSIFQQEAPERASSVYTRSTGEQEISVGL
T22 sequence (P32121 whole entry partner): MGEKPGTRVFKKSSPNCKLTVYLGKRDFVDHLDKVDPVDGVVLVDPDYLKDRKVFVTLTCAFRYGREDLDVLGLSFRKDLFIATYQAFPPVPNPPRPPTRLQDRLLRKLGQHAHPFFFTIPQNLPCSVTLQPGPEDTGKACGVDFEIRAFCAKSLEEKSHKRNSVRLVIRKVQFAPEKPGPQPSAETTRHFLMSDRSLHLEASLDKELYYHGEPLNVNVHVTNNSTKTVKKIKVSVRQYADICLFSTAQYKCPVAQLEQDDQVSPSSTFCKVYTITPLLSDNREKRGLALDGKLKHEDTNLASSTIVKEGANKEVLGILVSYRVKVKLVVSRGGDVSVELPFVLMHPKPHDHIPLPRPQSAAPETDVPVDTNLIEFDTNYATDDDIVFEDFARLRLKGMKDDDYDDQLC
Source text: Bioluminescence Resonance Energy Transfer (BRET)
BRET is an established technology for studying protein-protein proximity in live cells, particularly involving GPCRs (Pfleger and Eidne, 2006). One protein of interest was linked to a bioluminescent donor enzyme, Rluc8, a variant of Renilla luciferase, and a second linked to an acceptor fluorophore, Venus, a variant of green fluorescent protein. If in close proximity (<10 nm), energy resulting from the rapid oxidation of a cell-permeable coelenterazine substrate by the donor can transfer to the acceptor, which in turn fluoresces at a longer characteristic wavelength.
Plasmids were transiently co-expressed in human embryonic kidney (HEK) 293FT cells and BRET measurements taken at 37° C. using a POLARstar Omega or LUMIstar plate reader (BMG Labtech, Mornington, Victoria, Australia) with 460-490 nm (‘donor emission’) and 520-550 nm (‘acceptor emission’) filters, or a VICTOR Light plate reader (Perkin Elmer, Glen Waverley, Victoria, Australia) with 400-475 nm (‘donor emission’) and 520-540 nm (‘acceptor emission’) filters, or a CLARIOstar plate reader (BMG Labtech, Mornington, Victoria, Australia) with 420-480 nm (‘donor emission’) and 520-620 nm (‘acceptor emission’) filters. […]
For BRET kinetic assays, the final pre-treatment reading is presented at the zero time point (time of ligand/vehicle addition). […]

inhibition of the change in the ligand-induced BRET signal between the Rluc8-tagged GPCR and RAGE/Venus [1]: small yet discernible inhibition
inhibition of the change in the ligand-induced BRET signal between the Rluc8-tagged GPCR and RAGE/Venus [2]: particularly clear inhibition
inhibition of the change in the ligand-induced BRET signal between the Rluc8-tagged GPCR and RAGE/Venus (CCR4 and RAGE): particularly clear inhibition
inhibition of the change in the ligand-induced BRET signal between the Rluc8-tagged GPCR and RAGE/Venus [3]: particularly clear inhibition
inhibition of the change in the ligand-induced BRET signal between the Rluc8-tagged GPCR and RAGE/Venus (CXCR4 and RAGE): particularly clear inhibition
inhibition of the change in the ligand-induced BRET signal between the Rluc8-tagged GPCR and RAGE/Venus (CXCR5 and RAGE): small yet discernible inhibition
inhibition of the change in the ligand-induced BRET signal between the Rluc8-tagged GPCR and RAGE/Venus (CCR9 and RAGE): particularly clear inhibition
inhibition of the change in the ligand-induced BRET signal between the Rluc8-tagged GPCR and RAGE/Venus (CCR2 and RAGE): particularly clear inhibition
BRET signal with extracellularly luciferase-tagged AT1 receptor (Nluc-AT1) (AT1): BRET signal is observed
inhibition of the change in the ligand-induced BRET signal between the Rluc8-tagged GPCR and RAGE/Venus [4]: particularly clear inhibition
inhibition of the change in the ligand-induced BRET signal between the Rluc8-tagged GPCR and RAGE/Venus [5]: particularly clear inhibition
inhibition of the change in the ligand-induced BRET signal between the Rluc8-tagged GPCR and RAGE/Venus (CCR6 and RAGE): particularly clear inhibition
inhibition of the change in the ligand-induced BRET signal between the Rluc8-tagged GPCR and RAGE/Venus [6]: particularly clear inhibition
inhibition of the change in the ligand-induced BRET signal between the Rluc8-tagged GPCR and RAGE/Venus (CCR7 and RAGE): small yet discernible inhibition
inhibition of the change in the ligand-induced BRET signal between the Rluc8-tagged GPCR and RAGE/Venus [7]: particularly clear inhibition
inhibition of the change in the ligand-induced BRET signal between the Rluc8-tagged GPCR and RAGE/Venus [8]: particularly clear inhibition
inhibition of the change in the ligand-induced BRET signal between the Rluc8-tagged GPCR and RAGE/Venus (CXCR2 and RAGE): particularly clear inhibition
inhibition of the change in the ligand-induced BRET signal between the Rluc8-tagged GPCR and RAGE/Venus [9]: particularly clear inhibition
inhibition of the change in the ligand-induced BRET signal between the Rluc8-tagged GPCR and RAGE/Venus (CCR1 and RAGE): particularly clear inhibition
inhibition of the change in the ligand-induced BRET signal between the Rluc8-tagged GPCR and RAGE/Venus (CCR5 and RAGE): particularly clear inhibition
inhibition of the change in the ligand-induced BRET signal between the Rluc8-tagged GPCR and RAGE/Venus [10]: particularly clear inhibition
inhibition of the change in the ligand-induced BRET signal between the Rluc8-tagged GPCR and RAGE/Venus (AT1R and RAGE; angiotensin receptor AT1 (AT1R), mCherry-RAGE338-361 co-expressed, FIG. 21F): particularly clear inhibition
Molecule: mCherry-RAGE338-361: the RAGE TMD with an extracellular juxta-membrane fragment linked to mCherry (LGTLALALGILGGLGTAALLIGVI; also: linked to mCherry)
BRET between full length RAGE and AT1 (saturation and kinetic assays) (AT1R and RAGE; overexpression of mCherry-RAGE338-361, FIG. 21B, 21C): modulates BRET between full length RAGE and AT1 in a dose dependent fashion

recruitment of βarrestin2/Venus to CCR5/Rluc8 (CCR5; control): recruitment
B1: CCL4: chemokine ligand used to activate CCR5 (protein)
chain: APMGSDPPTACCFSYTARKLPRNFVVDYYETSSLCSQPAVVFQTKRSKQVCADPSESWVQEYVYDLELN
recruitment of β-arrestin2/Venus proximal to RAGE/Rluc8 (CCR5; in the presence of CCR5): particularly weak recruitment; also recorded: Lack of
